Data from the nanobody polyreactivity screen of Harvey et al. (2022).

Test: yeast display, Sf9 membrane polyspecificity reagent, FACS + sequencing; frameworks hold sequencing errors
How it was run: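 After 36–48 hours of galactose induction, yeast (Saccharomyces cerevisiae BJ5465) displaying a synthetic nanobody library were stained at 4 °C for 1 hour with 10% biotinylated, detergent-solubilized Sf9 membrane reagent. Streptavidin microbeads enriched the stained cells before FACS sorting into low and high (top ~1%) gates on anti-HA and streptavidin fluorescence. Each clone's polyreactivity label reflects its gate of origin.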

Row | Sequence | polyreactivity (PSR sort gate)
1 | QVQLVESGGGLVQAGGSLRLSCAASGRIFYKNVMVWYRQAPGKERELVAAISTSTGRTYYADSVKGRFTISRDNAKNTVYLEMNSLKPEDTAVYYCNAVRGHTNGVLYRYDYWGQGTQVTVSS | high polyreactivity
2 | QVQLVESGGGLVQAGGSLRLSCAASGTTFSVNAMGWYRQAPGKERELVAAIDYSGGSTYYADSVKGRFTISRDNAKNTVYLQMNSLKPEDTAVYYCNADAYGTPEFTSYAVRYDYWGQGTQVTVSS | low polyreactivity
3 | QVQLVESGGGLVQAGGSLRLSCAASGSYLRYYAMGWYRPARGKERELVAAISRSGTNTYYAHSVKGRFTISRDNAKNTVYLQMNSLKPEDTAVYYCAARGYYRDYDSWGQGTQVTVSS | high polyreactivity
4 | QVQLVESGGGLVQAGGSLRLSCAASGFIYWYYAMGWYRQAPGKERELVAAISGTGGTTYYADSVKGRFTISRDNAKNTVYLQMKSLKPEDTAVYYCNDRYDSRRTAIGYDYWGQGTQVTGSS | low polyreactivity
5 | QVQLVESGGGLLQAGGSLRLSCAATGITFDRYAMGWYRQAPGKERELVAAITSGGRTYYADSVKGRFTISRDNAKNTVYLQMNSLKPEDTAVYYCNATRGQYVGRYYYWGQGTQVTVSS | high polyreactivity
6 | QVQLVESGGGLVQAGGSLRLSCAASGSTIFENVMGWYRQAPGKEREFVAAINTSGGSTYYADSVKGRFTISRDNAKNTVYLQMNSLKPEDTAVYYCARDSYWEMDYWGQGTQVSVSS | low polyreactivity
7 | QVQLVESGGGIVQEGGSLRLSCAASGSTFRDYAMGWYRQAPGKERELVAAISSRGATTYYADSVKGRFTISRDNAKNTVYLQMNSLKPEDTAVYYCNARQRRNPGGYGYWGQVTQVTVSS | high polyreactivity
8 | QVQLVESGGGLVQAGGSLRLSCAASGITFVNNAMGWYRQAPGKEREFVAAISWSGGNTYYADSVKGRFTISRDNAKNTVYLQMISLKPEDTAVYYCSGYISRSRFRFYYWGQGTQVTVSS | low polyreactivity
9 | QVQLVESGGGLVQAGGSLRLSCAASGLTFPQYVMGWYRQAPGKERELVASISRSGGNTYYADSVKGRFTISRDNAKNTVYLQMNSLKPEDTAVYYCAAEYIFHYYDIFDYWGQGTQVTVSS | high polyreactivity
10 | QVQLVESGGGLVQEGGSLRLSCAASGSIFAKYAMGWYSQAPGKEREFVAGISYSGNTYYADSVKGRFTISRDNAKNTVYLQMNSLKPEDTAVYYCAADGYLQTRRFDYWGQGTQVTVSS | high polyreactivity
11 | QVQLVESGGGLVQAGGSLRLSCAASGSIFRYYAMGWYRQAHGKERELVAVITSSGTSTYYADSVKGRFTISRDNAKNTVYLQMNSRKPEDTAVDYCAVYPIIYGRMDSWGQGTQVTVSS | low polyreactivity
12 | QVQLVESGGGLVQAGGSLRISCAASGSIFLIFAMGWYRQSPGKERELVAAITQRGGSTYYADSVKGRFTISRDNAKNTVYFQMDSLKPEDTAVYYCNARRYVLRYNRFYYWGQGTQVTVSS | high polyreactivity
13 | QVQLVESGGGLVQAGGSLRLSCAASGRTFYLYTMGWYRQAPGKERELVATISDGGGGTYYADSVKGRFTISRDNAKNTVYLQMNSLKPEDPAVYYCAADPIDVRDVPIPHVDFDYWGQGTQVTVSS | low polyreactivity
14 | QVQLVESRAGLVQAGGSLRLSCAASGRTSWVYAMGWYRHAPGKDRELVAAIRWRGSSTYYADSGKGRFTISRDNAKNTVYLQMNSLKPEVTAVYYCAAAFSFAQSFDSWGQGTQVTVSS | high polyreactivity
15 | QVHLVESGGCLVQAGGSLRLSCAASGRIFGVYVMGWYRQARGTEREFVAAITWSGGRTYYADSVKGRFTISRDNAKNTVYFQMNSLKPQDTAVYYCAARRSYEYVYWGKGTQVTVSS | high polyreactivity
16 | QVQLVESGGGLVQAGGSLRLSSAASGRIFKYYVMGWYRQAPGKEREFVAAISGRGGRTYYADSVKGRFTISRDNAKNTVYLQMNSLKPEDTAVYYCATERQDRGPLGYNYWGQGTQVTVSS | high polyreactivity
17 | QVQLVESGGGLVQAGGSLRLSCAASGSTFNLYAMGWYRQAPGKERELVASISRSGVSTYYADSVKGRFTISRDNAKNTVYLQMNRLKPEDTAVYYCAVDKVLYRLYPGMDYWGQGTQVTVSS | low polyreactivity
18 | QVQLVESGGGLDQAGGSLRLSCAASGISFIIYVMGWYRQAPGKERELVAAISSTGSTYYADSVKGRFTISRDNAKNTVYLQMNSQKPEDTAVYYCAKRKFTARQRYNYWGQGTQVTVSS | high polyreactivity
19 | QVQLVESGGGLVQAGGSLRLSCAASGIIFQRNAMGWYRQAPGKERELVAAISASGGSTNYADSVKGRFTISRDNAKNTVYLQMNSLKPEDTAVYYCAVPARGTFLLRDGGRAEFDYWGQGTQVTVSS | low polyreactivity
20 | QVQLVESGGVLVQAGGSLRLSCAASGRTSKFYAMGWYRPAPGKERELVARITYSGGSTTYADSVKGRFTISRDNAKNTVYLQMNSLKPDDTAVYYFAITSQWLRRYYYWGQGTQVTVSS | high polyreactivity

Row | Sequence | polyreactivity (PSR sort gate)
21 | QVQLVESGGGLVQAGGSLRLSCAASGTNQGVNAMGWYRQAPGKEREFDAAITGRGGNTYYADSVKGRYTISRDNAKNTVYLQLNSLKPDDTAVYYCAARVKDTRYQSMLDYFYWGQGTEVTVSS | high polyreactivity
22 | QVQLVESGGGVVQAGGSLRLSCAASGSTSGIYAMGWYRQAPGKERELVAAIDTYGGSTYADSVKGRFTISRDNAKNTVYLQMNSVKPEDTAVYYCAKPFSSNSWSHGYCGQGTQVTVSS | low polyreactivity
23 | QVQLVESGGGLVQAGGSLRLSCAASGLILSDYAMGWYRQAPGKERELVATITSVGTTKYADSVKGRFTISRDNAKNTVYLQMNSLKPEDTAVYYCAVEWYQGTTYSISYLYDYWGQGTQVTVSS | low polyreactivity
24 | QVQLVESGGGLVQAGGSLRLSCAASGRTFARYGMGWYRQAPGKERELVATINWRSAGSTYYADSVKGRFTISRDNAKNTVYLLMNSLKPEDTAVYYCNVDSGRSYRVARYDYWGQGTQVTVSS | low polyreactivity
25 | QVQLVESGVGLVQAGGSLRLSCAASGSIFYPYAMGWYRQAPGKERELVAAISSGGRTYDADSVKGRFTISRDNAKNTVYLQMNSLKPEDTAVSYCAARPKAYGRPPGYYWGQGTQVTVSS | high polyreactivity
26 | QVQLVESGGGLVQAGGSVRLSCAASGRIFGIYAMGWYRQAPGKERELVAAITWIGGRTYYADSVKGRFTISRDNAKNTVYLQMNSLKPEDTAVYYCNAVYTQRFATYRRYDYWGQGTQVTVSS | high polyreactivity
27 | QVQLVESGGGLVQAGGTLRLSCSATGYIFWSYAMGGYRQAPGKERELVAGITASGGSTYYADSVKGRFTISRDNAKNTVYLQMNSLKPEDTAVSYCAVALRSTPRTREVRPSPRVYYWGQGTQVTVSS | high polyreactivity
28 | QDQLVESGGGLVQAGGTLSLSSAASVIIFYDNAMGWSRQAPGKEREYVAAISRSGTTTYYADSVKGRFTISRDNAKNTVYLQMNSLKPEDTAVYYCAARWVYYHAIFEYWGQGTQVTVSS | high polyreactivity
29 | QVQLVESGGGLVQAGGSLRLSCAASGFIFPSYVMGWYRQAPWKERELVATISHSGGSTYYADSVKGRFTLSRDNAKNTVYLQMNSLKPEDTAVYYCATRRRGPYSPYSPYDYWGQGTQVTVSS | high polyreactivity
30 | QVQLVESGGGLVQAGASLRLSCAASGFIYSFNTMGWYRQAPGKERELVAAITSGGSTNYADSVKGRFTISRDNAKNTVYLQMNSLKPEDTAVYYCNRQYYSYYGNDYWGQGTQVTVSS | high polyreactivity
31 | QVQLVESGGGLVQAGGSLRLSCAASGRIFGWYDMGWYRQAPGKERELVAAISYNGARTYYADSVKGRFTISRDNAKNTVYLQMNSLKPEDTAVYYCARRYYSQYDYWGQGTQVTVSS | high polyreactivity
32 | QVQLVESGGGLVQAGGSLRLSCAASGSIFQYNAMGWYRQAPGKESELVAVISWSGDTYYADSVKGRFTISRDNAKNTVYLQMNSLKPEDTAVYYCATDVLAWAPNDYWGQGTQVTVSS | low polyreactivity
33 | QVQLVESGGGLVQAGGSLRLSCAASGLIFDSYAMGWYRQAPGKERELVAAITYTGGSTYYADSVKGRFTISRDNAKNTVYLQMNSLKPEDTAVYYCAAVTRYAGRIRYGYWGQGTQVTVSS | high polyreactivity
34 | QVQLVESAGGLVQAGASLRLSCAASGSIFGGYAMGWYRQAPGTERELVAAISSGDSTYYADSVKGRFTISRDNAKNTVYLQMNSLKPEDTAVYYCARRYTRSYYKLGKLNYWGQGTQVTVSS | high polyreactivity
35 | QVQLVESGGGLVQAGGSLRLSCAASGSTFTTYAMGWYRQAPGKERELVAAISNNGGRTFYADSVKGRFTISRDNAKNTVYLQMNSLKPEDTAVYYCAAEYGLYAPGYYYWGQGTQVTVSS | low polyreactivity
36 | QVQLVESGGGLVQAGGSLRLSCAASGSIFWVYAMGWYRQAPGKERELVAAISQSGGSTYYADSVKGRFTISRDNAKNTVYLQMNSLKPEYTAVYYCAAYVRGQNYDYWGQGTQVTVSS | high polyreactivity
37 | QDQLVESGGGLVQAGGSLRLSCAASGRILPYYTMGWYRQAPGKERELVAAISKRGTSTYYADSVKGRFTISRDNAKNTVYLQMNSLKPEDTAVYYCAKRGPGVDYDYWGQGTQVTVSS | high polyreactivity
38 | QVQLVESGGGLVQAGGSLRLSCAASGLIFARYATGWYRQAPGKERELVAAITDTGDITYSADSVKGRFTISRDNAKNTVYLQMNSLKPEDTGVYYCNADGVESVGGVETLYWRGGYWGQGTQVTVSS | low polyreactivity
39 | QFQLVESGGGLVQAGVSLRLSCAASGSIILVYAMGLYIQATGKETELVPAITTRGSSTYYADSVKGRFKISRDNAKNTYYLQMNSLKPEDTEVYYCAKEFPGTQGRGVTGFSGTALGYWGQGTKVTVSS | low polyreactivity
40 | QVHLVESGGGLVQAGGSLRLSCAASGRTFGYYAMGWYRQAPAKERELVAAITSDGRTNYADSVKGRFTISRDNAKNTVYLQMNSLKPEDTAVYYCAAQILGTFYEYDYWGQGTQVTVSS | low polyreactivity
